# Experimental data reported in paper PMC2064651.
# Target: ADP/ATP carrier (S. cerevisiae (endogenous in strain GA74)) (UniProt P18239)
# Experiment: native gel or EMSA
substance,measurement,value
ADP/ATP carrier (from UniProt P18239 1-318) (natural protein),stoichiometry N,2
